System: MS2 coat protein
Assay: apparent KD of MS2 coat protein; designed switch direction (-1 OFF switch, 1 ON switch): -1; higher = weaker reporter binding
Summary of the method: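 The reported apparent KD is a per-design median over clusters, from curve fits of normalised cluster fluorescence. Protein titrations used SNAP-549-labelled MS2 coat protein, doubled from 0.7 or 1.5 nM to 3 µM, in Tris-HCl pH 7.5 buffer with KCl, MgCl2, BSA, DTT, tRNA and Tween-20, with no input, 200 uM small-molecule ligand, or an oligonucleotide input. The RNA switches were transcribed on Illumina chips by stalled E. coli RNA polymerase.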

[1] = input ligand: microRNA oligo, concentration not stated
[2] = Eterna round: R95, input ligand: FMN 200 uM
[3] = Eterna round: R95, input ligand: microRNA oligo, concentration not stated
[4] = Eterna round: R95, input ligand: none

Sequence | apparent KD of MS2 coat protein (input ligand: FMN 200 uM) [nM] | apparent KD of MS2 coat protein (input ligand: none) [nM] | apparent KD of MS2 coat protein [1] [nM] | apparent KD of MS2 coat protein [2] [nM] | apparent KD of MS2 coat protein [3] [nM] | apparent KD of MS2 coat protein [4] [nM]
AGAGAGUCAGGAUAUGACGAAGAGAACAUGAGGAUCACCCAUGUAGCUUCGUAAUCAUCGUCAGAAGGGACGAACU [JR_Ex5_Sub090] (Eterna round: R97, puzzle: Exclusion 5) | 14.7 | 14.8 |  |  |  | 
ACACAGCAAGGAUAUACAUGAGGAUCACCCAUGUGGCGGCCGUUACGGUAGGACUAGUGUAGAAGGUGCAUUGG [EX3 #33] (Eterna round: R97, puzzle: Exclusion 3) | 167 | 210 |  |  |  | 
CCAUCACAUGAGGAUCACCCAUGUGAGGAUAUGUUUUUGGUGCGUAUAAAGCCUGGGAACAGAAGGUACAGGGA [Eternabot (L2) Solution 50] (Eterna round: R97, puzzle: Exclusion 1) | 15.3 | 12.9 |  |  |  | 
UUGGUUGUGGUAGGAUAUCCGUUGGAAACUGUUGGAGAAGGACCACAGUCACUGGGUCCUUCUUUGGUGGAGUGGAAGAACCAU [pwkr exNG1 F6.17] (Eterna round: R96, puzzle: Exclusion NG 1) | 131 | 167 | 192 |  |  | 
GAAAACGCAGGAUAUUAAUACUUAUACAUGAGGAUCACCCAUGUUUAUUGGGAUUAAGAAUAAGAAGGGCGAUGAA [EX5 #1] (Eterna round: R97, puzzle: Exclusion 5) | 30.8 | 24 |  |  |  | 
CAAUAACAAGCGAGAUCCUACAUGAGGAUCACCCAUGUGCUCGUCUUAUAAAGUACUAUCACGAAAGUGAUAGUACA [Mat - Sensor v3 - turn-off var 1 - Eli Mod - D63] (puzzle: Sensor v3, turn-off variant 1) |  |  |  | 19.6 | 34 | 14.9
AGUUGGCGAGGAUAUACAUGAGGAUCACCCAUGUAAGAGAUACGAGUAAGGUAAAUAUGUAGAAGGCGCUGACA [JR_Ex3_Sub076] (Eterna round: R97, puzzle: Exclusion 3) | 251 | 26.9 |  |  |  | 
GAAUGAGAGCAGGAUAUCUUAUAAAUGUAUGGAAGAGAAGGGCUCACAUGAGGAUCACCCAUGUGGUCCUAGAU [jl-ex6-4.70 jandersonlee mod] (Eterna round: R97, puzzle: Exclusion 6) | 215 | 36.5 |  |  |  | 
GGAAGGCGAGGAUAUACAAUGCCGGAAACGGCAGGCGUGAGACAUGAGGAUCACCCAUGUAGAAGGCGCGGAGA [AK-MS2ROC-r4-exclusion2-15] (Eterna round: R97, puzzle: Exclusion 2) | 101 | 105 |  |  |  | 
GUGUACCGAGGAUAUGCUGGAAUCUAGCGAAGCUAGGUUCCACAUGAGGAUCACCCAUGUAGAAGGUGGUACAC [Dot plot directed A v7] (puzzle: Exclusion 2) |  |  |  |  | 55.5 | 
GACUAAAUUUUGUUUGGUUACAUGAGGAUCACCCAUGUUGGUCUAAGAACAUGUCUUUUGUACGCUUGUCUUAUAUA [JR_SV3TOV1_Sub068] (puzzle: Sensor v3, turn-off variant 1) |  |  |  | 76.6 | 45.8 | 96.3
AUUGAUAUUGAGGAUAUGCUUUUAUUUGUACUAGCAGAAGGCGAUACAUGAGGAUCACCCAUGUUUAUGGAAGU [JR_E6_Sub088] (puzzle: Exclusion 6) |  |  |  | 50.5 | 35.6 | 29.4
UUAUAUAGUAUAGGAUAUUAGAGGAGAAUGGUGAUAGAGACAUGAGGAUCACCCAUGUGAGGAGAUAAGAAGGGUAAUAAUUAU [AK ExNG2-V2-3] (Eterna round: R96, puzzle: Exclusion NG 2) | 326 | 351 | 176 |  |  | 
GCGCAAACGCCAAAAGGCGAAACAACAUGAGGAUCACCCAUGUAGGAUAUCGAUUGCUUUGCAGUCGAGAAGGACGUAAUGCGC [JL ENG3 3.80 Mod 5] (Eterna round: R96, puzzle: Exclusion NG 3) | 12.7 | 22.1 | 14.9 |  |  | 
AGGUGUAGAGGAUAUCUCUUCUCUCACAUGAGGAUCACCCAUGUCCUAAAGUCCUAGGAGAGAGAAGGCUACACCA [Omei Ex5 D3] (Eterna round: R97, puzzle: Exclusion 5) | 230 | 82.8 |  |  |  | 
GUACUAGAAUAUCAGUCGCACAUGAGGAUCACCCAUGUCAUGGGUAGAUAAAUAAAUAAAGAUACUGCUCGUCUUAU [Cac sensor turnoff var1 sub1] (Eterna round: R97, puzzle: Sensor, turn-off variant 1) | 277 | 399 |  |  |  | 
CGUGUCUUUUACGUGAGUGGUGGGUGCAACAGGUGGGUUACAUGAGGAUCACCCAUGUCCUCACUUGCUCGUCUUUU [Grok-var2-08] (puzzle: Sensor v3, turn-off variant 2) |  |  |  | 76.7 | 53.5 | 69.8
UACAGUCAUCCUUGUUGUUACAUGAGGAUCACCCAUGUUAGUAUAAUUAAGUUAUGUAAGUUUGUUGUUCGUUUUAU [JR_STOV1_v2_Sub076] (Eterna round: R97, puzzle: Sensor, turn-off variant 1) | 94.2 | 101 |  |  |  | 
UGAAGUAGAGGAUAUACGUGGAAAUAGAUUCAUGUAAAACUACAUGAGGAUCACCCAUGUAGAAGGCUAUAGAU [JR_Ex2_Sub072] (Eterna round: R97, puzzle: Exclusion 2) | 28.4 | 49 |  |  |  | 
GUCACGUAAGGAUAUCAUUAGUUGGACAUGAGGAUCACCCAUGUGAGACUAACUCCGGCGUGAGAAGGUGCGUUAA [Arorza] (puzzle: Exclusion 5) |  |  |  |  | 12 | 
GUGGCACUAGUGAGGAUAUGGAAAUUGACAGAUAUCCAGAAGGCACAUGAGGAUCACCCAUGUCGAAUCCAGCA [Eternabot (L1) Solution 81] (Eterna round: R97, puzzle: Brourd's mod of Exclusion 4) | 36.9 | 22.8 |  |  |  | 
UAAACAAGCUAAAGAUUCUACAUGAGGAUCACCCAUGUGCUCGUCUUAUAAGGUACUGUGACGAAAGUCACGGUACC [JL TOV1 3.07] (Eterna round: R97, puzzle: Sensor, turn-off variant 1) | 17.9 | 21.1 |  |  |  | 
UGUUGUCGCGCAGGAUAUGAGGAUCACCCAUAUCAGGAUAUCGAAAGAGAAUUUCUGAGGAUCACCCAGAAGGGCGGGACAACU [pwkr exNG2 2xF5 2xFMN.34] (Eterna round: R96, puzzle: Exclusion NG 2) | 210 | 42.9 | 35.6 |  |  | 
AUUGAUAGCACAGGAUAUUGAGAUUUGAAUUGACAAGAAGGGUGUACAUGAGGAUCACCCAUGUAAUGGUUGCCUCGUUGAUUA [JR_ExcNG1_Sub004] (Eterna round: R96, puzzle: Exclusion NG 1) | 1070 | 148 | 125 |  |  | 
CUUCACCCACCAGAGCUCACCCACAUACCAGCUCUGGUGACAUGAGGAUCACCCAUGUUUUUUGCCCGUCUUAUCUU [Intibima] (Eterna round: R96, puzzle: Sensor v3, turn-off variant 2) | 65 | 79.1 | 218 |  |  | 
UUAAUUAAUUAAGCGCAAGAUCACAUGAGGAUCACCCAUGUAUAGGAUAUCAGCUCGUUUAGAGCUGAGAAGGAUACAUAGCGC [ExNG3/2-A2] (Eterna round: R96, puzzle: Exclusion NG 3) | 738 | 172 | 155 |  |  | 
UCCCAGCUAGGAUAUACAUGAGGAUCACCCAUGUCGAUCCACGGCACCCGAGUAUUGAGUAGAAGGAGUCAGGA [Eternabot (L2) Solution 69] (Eterna round: R97, puzzle: Exclusion 3) | 25.1 | 23.1 |  |  |  | 
GCACGAAGUGUAGGAUAUCUGUGCGAUUAGCUCAGAGAAGGACACAUGAGGAUCACCCAUGUGUUCCAGCGAAAGCAAACGUGC [Eli exng1 - 055] (Eterna round: R96, puzzle: Exclusion NG 1) | 9.68 | 12.9 | 7.78 |  |  | 
UGUGUUUUUGUGAGGAUAUACUGUUUGUUUUGUUUGUAGAAGGUACAUGAGGAUCACCCAUGUUGUGUUUGGUU [JR_BME4_Sub032] (puzzle: Brourd's mod of Exclusion 4) |  |  |  |  | 30.9 | 
AGUAUGCGUGUCAGGAUAUCAAUGGCUCUACCCAAUGAGAAGGGACAUGAGGAUCACCCAUGUAUGAGCCUAAA [Zatelaveus] (puzzle: Brourd's mod of Exclusion 4) |  |  |  | 15.9 | 14.1 | 14.5
